Earlier results on 1 substance are cited in article PMC4618378.

In general, Ki refers to a measure of affinity in units of concentration, obtained from inhibition or displacement.

For series [1], the target named is cone PDE6 gamma-subunit (Homo sapiens) (UniProt Q13956).
In series [2] the target is rod PDE6 gamma-subunit (Homo sapiens) (UniProt P18545).
UniProt P18545, sequence (P18545 whole entry): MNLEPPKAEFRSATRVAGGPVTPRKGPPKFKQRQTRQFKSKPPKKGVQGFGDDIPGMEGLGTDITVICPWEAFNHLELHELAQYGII

UniProt Q13956, sequence (Q13956 whole entry): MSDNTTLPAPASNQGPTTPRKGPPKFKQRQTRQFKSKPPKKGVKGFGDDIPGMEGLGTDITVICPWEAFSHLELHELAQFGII

Take PDE6C (from UniProt P51160): the Ki was 0.078 nM in series [1] and 0.155 nM in series [2].
